The target of experiment [1] is T1, human Trop-2 (human, UniProt P09758 27-323).
T1 sequence (looked up): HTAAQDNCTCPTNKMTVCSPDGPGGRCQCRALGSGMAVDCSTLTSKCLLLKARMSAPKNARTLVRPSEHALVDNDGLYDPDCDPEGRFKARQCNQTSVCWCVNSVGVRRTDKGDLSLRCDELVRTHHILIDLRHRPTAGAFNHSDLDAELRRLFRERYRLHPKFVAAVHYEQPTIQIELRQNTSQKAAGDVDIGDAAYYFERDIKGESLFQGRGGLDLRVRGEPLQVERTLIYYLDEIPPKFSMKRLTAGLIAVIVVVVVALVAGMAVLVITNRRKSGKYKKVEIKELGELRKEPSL
Put plainly: cell-based or functional assay.

In experiment [2] the target is T1, human Trop-2. Put plainly: cell-based or functional assay. The source holds these as a separate data set.
Experiment [3] deals with T2, mouse Trop-2 (mouse, UniProt Q8BGV3 25-270, limits assumed).
T2 sequence (looked up): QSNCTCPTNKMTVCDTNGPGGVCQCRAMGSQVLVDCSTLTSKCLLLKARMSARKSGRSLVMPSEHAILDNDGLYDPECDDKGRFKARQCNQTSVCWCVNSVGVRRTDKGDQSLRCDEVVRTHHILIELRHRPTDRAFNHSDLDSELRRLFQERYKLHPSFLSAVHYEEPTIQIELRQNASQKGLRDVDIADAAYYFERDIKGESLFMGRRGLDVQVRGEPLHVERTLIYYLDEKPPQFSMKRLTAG
Kind of experiment: not described (data not shown).

Experiment [4] addresses mouse CD3 (mouse, UniProt P22646 22-108). Put plainly: not described (data not shown).

Chain of mouse CD3 (P22646 22-108): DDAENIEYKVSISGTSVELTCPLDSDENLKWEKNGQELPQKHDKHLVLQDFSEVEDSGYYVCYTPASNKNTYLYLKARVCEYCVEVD

B1: (E1)-3s, anti-Trop-2 x anti-CD3 trivalent bispecific DNL complex (two CH1-DDD2-Fab-hRS7 + one scFv-AD2-Okt3) (bispecific antibody)
heavy (part 1 of 2): QVQLQQSGSELKKPGASVKVSCKASGYTFTNYGMNWVKQAPGQGLKWMGWINTYTGEPTYTDDFKGRFAFSLDTSVSTAYLQISSLKADDTAVYFCARGGFGSSYWYFDVWGQGSLVTVSS
heavy (part 2 of 2): not shown
light: DIQLTQSPSSLSASVGDRVSITCKASQDVSIAVAWYQQKPGKAPKLLIYSASYRYTGVPDRFSGSGSGTDFTLTISSLQPEDFAVYYCQQHYITPLTFGAGTKVEIK
scFv: not shown
notes: also called (E1)-35; TROP2-targeting bsAb; not shown: human CH1, first 4 hinge residues and Gly/Ser linker; human kappa constant domain
In the case of B1, in experiment [1], the “T-cell killing of BxPC3, IC50” value amounted to 0.4 pM; the “T-cell lysis of NCI-N87, very active donor, IC50” value amounted to 0.37 pM; the “T-cell lysis of NCI-N87, very active donor, with 0.1 nM 20*-2b, IC50” value came to 0.05 pM; the “T-cell lysis of NCI-N87, very active donor, with 0.1 nM peginterferonalfa-2a, IC50” value amounted to 0.14 pM. Also, in experiment [1], the “T-cell lysis of NCI-N87, very weak donor T cells, EC50” value worked out at 39 pM; the “T-cell lysis of NCI-N87, very weak donor T cells, with peginterferonalfa-2a, EC50” value came to 1.4 pM; the “T-cell mediated lysis of Capan-1, IC50” value stood at 29 pM; the “T-cell mediated lysis of NCI-N87, IC50” value is 0.85 pM. Further, in experiment [2], the “ex vivo T cell redirected killing of BxPC3, donor 1, IC50” value is 1.06 pM; the “ex vivo T cell redirected killing of BxPC3, donor 2, IC50” value amounted to 0.56 pM; the “ex vivo T cell redirected killing of BxPC3, donor 3, IC50” value came to 0.32 pM; the “ex vivo T cell redirected killing of Capan-1, donor 1, IC50” value came out at 35.6 pM. In addition, in experiment [2], the “ex vivo T cell redirected killing of Capan-1, donor 2, IC50” value worked out at 248 pM; the “ex vivo T cell redirected killing of Capan-1, donor 4, IC50” value is 8.51 pM; the “ex vivo T cell redirected killing of NCI-N87, donor 1, IC50” value was 6.76 pM; the “ex vivo T cell redirected killing of NCI-N87, donor 2, IC50” value stood at 34 pM. Moreover, the binding result in experiment [3] is listed as “no binding”. For the same molecule, the binding result in experiment [4] is listed as “no binding”.

The values are drawn from US20180118846A1 (published 2018).
